Results on three molecules are retold here after patent EP3581587A1 (Shanghai Benemae Pharmaceutical Corporation, dated 2019).

For this assay, the target named is human activated coagulation factor XI (FXIa) (human, UniProt P03951 19-625). The assay is described as follows: cell-based or functional assay.

B1: h-19F6 (antibody, human IgG4, V domains shown)
VH: EVQLVESGGGLVQPGRSLRLSCTASGFTFSKYAMSWVRQAPGKGLEWVSAINYDGSTTYYADSVKGRFTLSRDNSKNTLYLQMNSLRAEDTAVYYCARHPFNNFGIWFAYWGQGTLVTVS
VL: QFQLTQPSSVSASVGDRVTITCERSSGDIGDSYVSWYQQKPGQPPKNVIYADDQRPSGVPDRFSGSIDGSGNSASLTISSLQAEDAADYFCQSYDSNIDFNPVFGGGTKLEVK
As for B1, the “apparent Ki, inhibition of FXIa cleavage of chromogenic substrate S-2366” value (“apparent Ki, inhibition” below) was found to be 0.67 nM.

B2: h-34F8 (antibody, human IgG4, V domains shown)
VH: QVQLQESGPGLVKPSETLSLTCTVSGFSLTTYHVHWVRQPPGKGLEWIGIMWRDGDTYYNSSLKSRVTISRDTSKNQVSLKLSSVTAADTAVYFCARGGTLTTPFTYWGQGTLVTVSS
VL: DVVLTQTPLSLPVTPGEPASISCRSSQSLESRDGNTYLEWYLQKPGQSPQVLLYGVSNRLSGVPDRFSGSGSGTDFTLKISRVEAEDVGVYYCFQATHGPFTFGQGTKLEIKR
For B2, the “apparent Ki, inhibition” value stood at 2.08 nM.

B3: h-42A5 (antibody, human IgG4, V domains shown)
VH: QVTLKESGPVLVKPTETLTLTCTVSGFSLTSYHLHWIRQPPGKALEWMGLMWRDGDTSYNSRLKSRLTISRDTSKSQVVLTMTNMDPVDTATYYCARGMTLATPFLYWGQGTLVTVSS
VL: DVVLTQTPLSLSVTPGQPASISCRSSQSLESSDGNTYLEWYLQKPGQSPQLLIYGVSNRFSGVPDRFSGSGSGTDFTLKISRVEAEDLGVYYCFQATRDPFTFGQGTKLEIKR
B3: the “apparent Ki, inhibition” value was 1.43 nM.
